Values belong to the substance of their own block, whether it stands above or below them.
Assays:
[1] = target: human CD20 on cells (human) (UniProt P11836); assay: flow cytometry, Jeko-1 (MCL) cells; no mAb 14.3
[2] = target: human CD20 on cells (human) (UniProt P11836); assay: flow cytometry, GDM-1 (AML) cells; no mAb 16.8
[3] = target: human CD20 on cells (human) (UniProt P11836); assay: flow cytometry, 697 (ALL) cells; no mAb 4.9
[4] = target: human CD20 on cells (human) (UniProt P11836); assay: flow cytometry, Kasumi-1 (AML) cells; no mAb 18.2
[5] = target: human CD20 on cells (human) (UniProt P11836); assay: flow cytometry, HC-1 (hairy cell leukemia) cells; no mAb 4.8
[6] = target: human CD20 on cells (human) (UniProt P11836); assay: flow cytometry, Kasumi-3 (AML) cells; no mAb 9.6
[7] = target: human CD20 on cells (human) (UniProt P11836); assay: flow cytometry, WAC (CLL) cells; no mAb 15.8
[8] = target: human CD20 on cells (human) (UniProt P11836); assay: flow cytometry, Granta-519 (MCL) cells; no mAb 15.3
[9] = target: human CD20 on cells (human) (UniProt P11836); assay: flow cytometry, MEC-1 (CLL) cells; no mAb 4.7
[10] = target: canine CD20 on dog lymphocytes and lymphoma cells (dog) (UniProt Q3C2E2); assay: flow cytometry, canine lymphoma aspirate 150836; none 3.4
[11] = target: human CD20 on cells (human) (UniProt P11836); assay: flow cytometry, K562 (CML) cells; no mAb 3.2
[12] = target: canine CD20 on dog lymphocytes and lymphoma cells (dog) (UniProt Q3C2E2); assay: flow cytometry, dog lymphoma aspirate; none 3.85
[13] = target: human CD20 on cells (human) (UniProt P11836); assay: flow cytometry, MN60 (ALL) cells; no mAb 8.1
[14] = target: human CD20 on cells (human) (UniProt P11836); assay: flow cytometry, RS4;11 (ALL) cells; no mAb 6.4
[15] = target: canine CD20 on dog lymphocytes and lymphoma cells (dog) (UniProt Q3C2E2); assay: flow cytometry, dog lymphoma aspirate; none 3.37
[16] = target: canine CD20 on dog lymphocytes and lymphoma cells (dog) (UniProt Q3C2E2); assay: flow cytometry, canine lymphoma aspirate 150836; none 3.9
[17] = target: human CD20 on cells (human) (UniProt P11836); assay: flow cytometry, REH (ALL) cells; no mAb 3.9
[18] = target: human CD20 on cells (human) (UniProt P11836); assay: indirect flow cytometry, Namalwa cells, FITC-GAM; none 2.91
[19] = target: antigen recognised by L243 on canine lymphocytes and canine lymphoma cells (HLA-DR of the dog) (dog); assay: flow cytometry, canine lymphoma aspirate 150836; none 3.4; control antibody
[20] = target: human leukocyte antigen-DR (HLA-DR) on human lymphoma and leukemia cell lines and human lymphocytes (human); assay: indirect flow cytometry, Namalwa cells, FITC-GAM; none 2.91; control antibody
[21] = target: human leukocyte antigen-DR (HLA-DR) on human lymphoma and leukemia cell lines and human lymphocytes (human); assay: flow cytometry, WAC (CLL) cells; no mAb 15.8; isotype control
[22] = target: human leukocyte antigen-DR (HLA-DR) on human lymphoma and leukemia cell lines and human lymphocytes (human); assay: flow cytometry, Kasumi-3 (AML) cells; no mAb 9.6; isotype control
[23] = target: human leukocyte antigen-DR (HLA-DR) on human lymphoma and leukemia cell lines and human lymphocytes (human); assay: flow cytometry, Jeko-1 (MCL) cells; no mAb 14.3; isotype control
[24] = target: human leukocyte antigen-DR (HLA-DR) on human lymphoma and leukemia cell lines and human lymphocytes (human); assay: flow cytometry, HC-1 (hairy cell leukemia) cells; no mAb 4.8; isotype control
[25] = target: antigen recognised by L243 on canine lymphocytes and canine lymphoma cells (HLA-DR of the dog) (dog); assay: flow cytometry, dog lymphoma aspirate; none 3.85; control antibody
[26] = target: human leukocyte antigen-DR (HLA-DR) on human lymphoma and leukemia cell lines and human lymphocytes (human); assay: flow cytometry, RS4;11 (ALL) cells; no mAb 6.4; isotype control
[27] = target: human leukocyte antigen-DR (HLA-DR) on human lymphoma and leukemia cell lines and human lymphocytes (human); assay: flow cytometry, 697 (ALL) cells; no mAb 4.9; isotype control
[28] = target: antigen recognised by L243 on canine lymphocytes and canine lymphoma cells (HLA-DR of the dog) (dog); assay: flow cytometry, dog lymphoma aspirate; none 3.37; control antibody
[29] = target: human leukocyte antigen-DR (HLA-DR) on human lymphoma and leukemia cell lines and human lymphocytes (human); assay: flow cytometry, Kasumi-1 (AML) cells; no mAb 18.2; isotype control
[30] = target: human leukocyte antigen-DR (HLA-DR) on human lymphoma and leukemia cell lines and human lymphocytes (human); assay: flow cytometry, K562 (CML) cells; no mAb 3.2; isotype control
[31] = target: human leukocyte antigen-DR (HLA-DR) on human lymphoma and leukemia cell lines and human lymphocytes (human); assay: flow cytometry, MEC-1 (CLL) cells; no mAb 4.7; isotype control
[32] = target: human leukocyte antigen-DR (HLA-DR) on human lymphoma and leukemia cell lines and human lymphocytes (human); assay: flow cytometry, MN60 (ALL) cells; no mAb 8.1; isotype control
[33] = target: human leukocyte antigen-DR (HLA-DR) on human lymphoma and leukemia cell lines and human lymphocytes (human); assay: flow cytometry, Granta-519 (MCL) cells; no mAb 15.3; isotype control
[34] = target: human leukocyte antigen-DR (HLA-DR) on human lymphoma and leukemia cell lines and human lymphocytes (human); assay: flow cytometry, GDM-1 (AML) cells; no mAb 16.8; isotype control
[35] = target: antigen recognised by L243 on canine lymphocytes and canine lymphoma cells (HLA-DR of the dog) (dog); assay: flow cytometry, canine lymphoma aspirate 150836; none 3.9; control antibody
[36] = target: human leukocyte antigen-DR (HLA-DR) on human lymphoma and leukemia cell lines and human lymphocytes (human); assay: flow cytometry, REH (ALL) cells; no mAb 3.9; isotype control
[37] = target: canine CD22 on dog lymphocytes and lymphoma cells (dog); assay: flow cytometry, dog lymphoma aspirate; none 4.48
[38] = target: canine CD22 on dog lymphocytes and lymphoma cells (dog); assay: flow cytometry, canine lymphoma aspirate 150836; none 3.2
[39] = target: canine CD22 on dog lymphocytes and lymphoma cells (dog); assay: flow cytometry, canine lymphoma aspirate 150836; none 4.5
[40] = target: canine CD22 on dog lymphocytes and lymphoma cells (dog); assay: flow cytometry, dog lymphoma aspirate; none 3.24
[41] = target: human leukocyte antigen-DR (HLA-DR) on human lymphoma and leukemia cell lines and human lymphocytes (human); assay: indirect flow cytometry, Namalwa cells, FITC-GAH; none 2.52; irrelevant antibody
[42] = target: canine CD22 on dog lymphocytes and lymphoma cells (dog); assay: flow cytometry, canine lymphoma aspirate 150836; none 3.4
[43] = target: canine CD22 on dog lymphocytes and lymphoma cells (dog); assay: flow cytometry, dog lymphoma aspirate; none 3.85
[44] = target: canine CD22 on dog lymphocytes and lymphoma cells (dog); assay: flow cytometry, dog lymphoma aspirate; none 3.37
[45] = target: canine CD22 on dog lymphocytes and lymphoma cells (dog); assay: flow cytometry, canine lymphoma aspirate 150836; none 3.9
[46] = target: human leukocyte antigen-DR (HLA-DR) on human lymphoma and leukemia cell lines and human lymphocytes (human); assay: indirect flow cytometry, Namalwa cells, FITC-GAM; none 2.91; irrelevant antibody

Sequence of canine CD20 on dog lymphocytes and lymphoma cells (dog) (Q3C2E2 whole entry): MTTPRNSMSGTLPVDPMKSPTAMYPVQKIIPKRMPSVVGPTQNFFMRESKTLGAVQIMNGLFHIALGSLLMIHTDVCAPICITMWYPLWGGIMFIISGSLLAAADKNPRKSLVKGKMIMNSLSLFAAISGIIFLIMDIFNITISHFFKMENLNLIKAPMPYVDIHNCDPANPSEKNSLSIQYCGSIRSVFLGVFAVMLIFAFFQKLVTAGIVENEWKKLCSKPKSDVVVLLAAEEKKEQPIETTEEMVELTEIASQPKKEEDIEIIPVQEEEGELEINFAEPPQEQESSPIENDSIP
Sequence of human CD20 on cells (human) (P11836 whole entry): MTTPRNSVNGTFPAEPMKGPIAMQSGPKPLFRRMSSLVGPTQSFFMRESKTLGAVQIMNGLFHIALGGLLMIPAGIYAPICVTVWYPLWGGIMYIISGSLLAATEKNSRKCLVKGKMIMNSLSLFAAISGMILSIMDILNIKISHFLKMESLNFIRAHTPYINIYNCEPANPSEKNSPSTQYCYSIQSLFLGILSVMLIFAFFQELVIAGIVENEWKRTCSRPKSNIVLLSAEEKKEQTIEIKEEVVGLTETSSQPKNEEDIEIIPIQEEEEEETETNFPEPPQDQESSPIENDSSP

mean FL [1]: 455
mean FL [2]: 15.6
mean FL [3]: 6.9
mean FL [4]: 14.5
mean FL [5]: 42.2
mean FL [6]: 11
mean FL [7]: 275
mean FL [8]: 677
mean FL [9]: 175
mean FL [10]: 3.1
mean FL [11]: 4.3
% Positive [12]: 2.61%
mean FL [13]: 162
mean FL [14]: 11.5
mean FL [15]: 3.11
% Positive [16]: 2.6%
mean FL [17]: 23.5
GEO MEAN Fluorescence [18]: 6.16
Substance: 2B8 (murine anti-CD20 mAb) (antibody)

mean FL [19]: 3
GEO MEAN Fluorescence [20]: 3.64
mean FL [21]: 14.4
mean FL [22]: 15.7
mean FL [23]: 17.4
mean FL [24]: 3.5
% Positive [25]: 2.81%
mean FL [26]: 8.6
mean FL [27]: 5.6
mean FL [28]: 3.04
mean FL [29]: 17
mean FL [30]: 4.1
mean FL [31]: 6
mean FL [32]: 10.5
mean FL [33]: 16.9
mean FL [34]: 20.1
% Positive [35]: 2.8%
mean FL [36]: 3.9
Substance: Ag8 (P3x63 Ag8, murine myeloma derived mAb) (antibody)

% Positive [37]: 4.85%
mean FL [38]: 3.4
% Positive [39]: 4.9%
mean FL [40]: 3.37
Substance: epratuzumab (hLL2, humanized anti-CD22 mAb) (antibody)

GEO MEAN Fluorescence [41]: 2.47
Substance: hRS7 (humanized anti-EGP-1) (antibody)

mean FL [42]: 3.7
% Positive [43]: 5.05%
mean FL [44]: 3.73
% Positive [45]: 5.1%
Substance: murine LL2 (anti-human CD22) (antibody)

GEO MEAN Fluorescence [46]: 3.39
Substance: murine RS7 (antibody)
